The results in this text go back to patent publication US20220389119A1.

The test deals with WT Fc chain lacking a warhead. The test is described as follows: co-expression in HEK 293 EBNA1, protein A purification, non-reduced micro-capillary gel electrophoresis; 50 kDa = Fc homodimer lacking warheads.

In the case of WT Fc chain lacking a warhead, the NR-mCE 50 kDa (%) was found to be 21.4%.
